The term EC50 (read off the curve) denotes the concentration giving half of the maximal effect.

Consider one substance from patent US20190112392A1.

This test addresses soluble recombinant cynomolgus TCR alpha/beta-zipper protein (cynomolgus/rhesus monkey). Kind of test: ELISA, 2 µg/mL coated soluble recombinant cynomolgus TCR α/β-zipper protein, OD 450 nm. (ELISA stands for enzyme-linked immunosorbent assay.)

Chain of soluble recombinant cynomolgus TCR alpha/beta-zipper protein (cynomolgus/rhesus monkey) (TCR alpha, as listed by the source, chain 1 of 2): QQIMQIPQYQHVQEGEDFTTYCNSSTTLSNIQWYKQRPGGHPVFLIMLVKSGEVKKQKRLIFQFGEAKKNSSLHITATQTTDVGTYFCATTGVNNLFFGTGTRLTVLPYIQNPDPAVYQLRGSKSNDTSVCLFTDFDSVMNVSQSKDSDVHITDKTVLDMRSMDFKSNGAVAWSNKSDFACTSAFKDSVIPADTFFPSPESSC
Chain of soluble recombinant cynomolgus TCR alpha/beta-zipper protein (cynomolgus/rhesus monkey) (TCR beta, as listed by the source, chain 2 of 2): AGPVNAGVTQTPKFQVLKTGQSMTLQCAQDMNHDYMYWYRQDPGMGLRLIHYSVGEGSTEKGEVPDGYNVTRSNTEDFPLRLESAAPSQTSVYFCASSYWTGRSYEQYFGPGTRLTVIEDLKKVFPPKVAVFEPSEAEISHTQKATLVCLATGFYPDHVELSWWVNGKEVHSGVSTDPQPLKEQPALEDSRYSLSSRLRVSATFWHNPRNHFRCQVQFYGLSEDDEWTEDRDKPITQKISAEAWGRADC

With “anti-non-human primate/Rat TCRα/β antibody clone R73”, the 50% effective concentration (EC50 (read off the curve)) turned out to be 0.1 nM.
